According to publication doi:10.1101/2022.07.21.500383 (bioRxiv, 2022):

T1: IL-11Δ10/IL-11Rα_(D1-D3) binary complex (human, UniProt P20809 32-199; Q14626 23-317)
T1 sequence 1: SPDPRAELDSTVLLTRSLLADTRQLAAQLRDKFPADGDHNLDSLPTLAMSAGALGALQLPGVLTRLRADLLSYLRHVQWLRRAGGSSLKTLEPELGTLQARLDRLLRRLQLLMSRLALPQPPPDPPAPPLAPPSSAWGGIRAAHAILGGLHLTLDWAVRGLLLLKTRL
T1 sequence 2: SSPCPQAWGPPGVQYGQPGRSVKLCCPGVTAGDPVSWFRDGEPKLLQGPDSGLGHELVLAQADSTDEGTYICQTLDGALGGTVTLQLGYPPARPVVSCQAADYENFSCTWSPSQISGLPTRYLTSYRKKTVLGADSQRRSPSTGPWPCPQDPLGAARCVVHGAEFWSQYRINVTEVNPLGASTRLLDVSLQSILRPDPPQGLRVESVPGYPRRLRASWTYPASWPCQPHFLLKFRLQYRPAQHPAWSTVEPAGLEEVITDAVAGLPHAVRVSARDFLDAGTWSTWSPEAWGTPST

B1: gp130_(D2-D3) (receptor, human, UniProt P40189 123-325, looked up)
chain: GLPPEKPKNLSCIVNEGKKMRCEWDGGRETHLETNFTLKSEWATHKFADCKAKRDTPTSCTVDYSTVYFVNIEVWVEAENALGKVTSDHINFDPVYKVKPNPPHNLSVINSEELSSILKLTWTNPSIKSVIILKYNIQYRTKDASTWSQIPPEDTASTRSSFTVQDLKPFTEYVFRIRCMKEDGKGYWSDWSEEASGITYEDR
B2: gp130_(D1-D3) (cytokine binding domains of gp130) (receptor, human)
chain: ELLDPCGYISPESPVVQLHSNFTAVCVLKEKCMDYFHVNANYIVWKTNHFTIPKEQYTIINRTASSVTFTDIASLNIQLTCNILTFGQLEQNVYGITIISGLPPEKPKNLSCIVNEGKKMRCEWDGGRETHLETNFTLKSEWATHKFADCKAKRDTPTSCTVDYSTVYFVNIEVWVEAENALGKVTSDHINFDPVYKVKPNPPHNLSVINSEELSSILKLTWTNPSIKSVIILKYNIQYRTKDASTWSQIPPEDTASTRSSFTVQDLKPFTEYVFRIRCMKEDGKGYWSDWSEEASGITYEDR
modifications: N-linked glycans at N21, N61, N135 (visible in the structures)
B3: gp130EC (complete extracellular domains of gp130, D1-D6) (receptor, human, UniProt P40189 23-619, looked up)
chain: ELLDPCGYISPESPVVQLHSNFTAVCVLKEKCMDYFHVNANYIVWKTNHFTIPKEQYTIINRTASSVTFTDIASLNIQLTCNILTFGQLEQNVYGITIISGLPPEKPKNLSCIVNEGKKMRCEWDGGRETHLETNFTLKSEWATHKFADCKAKRDTPTSCTVDYSTVYFVNIEVWVEAENALGKVTSDHINFDPVYKVKPNPPHNLSVINSEELSSILKLTWTNPSIKSVIILKYNIQYRTKDASTWSQIPPEDTASTRSSFTVQDLKPFTEYVFRIRCMKEDGKGYWSDWSEEASGITYEDRPSKAPSFWYKIDPSHTQGYRTVQLVWKTLPPFEANGKILDYEVTLTRWKSHLQNYTVNATKLTVNLTNDRYLATLTVRNLVGKSDAAVLTIPACDFQATHPVMDLKAFPKDNMLWVEWTTPRESVKKYILEWCVLSDKAPCITDWQQEDGTVHRTYLRGNLAESKCYLITVTPVYADGPGSPESIKAYLKQAPPSKGPTVRTKKVGKNEAVLEWDQLPVDVQNGFIRNYTIFYRTIIGNETAVNVDSSHTEYTLSSLTSDTLYMVRMAAYTDEGGKDGPEFTFTTPKFAQGEIE
modifications: N-linked glycans at N21, N61, N135 (visible in the structures)

Tests used:
Test in all cases: ITC
[1] = target: IL-11_(Δ10/PAIDY)/IL-11Rα_(D1-D3) binary complex (human) (UniProt P20809)
[2] = target: IL-11_(Δ10/W147A)/IL-11Rα_(D1-D3) binary complex (human) (UniProt P20809)
[3] = target: T1, IL-11Δ10/IL-11Rα_(D1-D3) binary complex
[4] = target: IL-11_(Δ10/Mutein)/IL-11Rα_(D1-D3) binary complex (human) (UniProt P20809)

Row | Binder | Kd [1] | Kd [2] | Kd [3] | dH [3] | Kd [4]
1 | B1 | 60 nM | 130 nM | 380 nM | 6.45 kcal/mol | 
2 | B2 | 20 nM |  | 3 nM | -8.13 kcal/mol | 55 nM
3 | B3 |  |  |  | -4.78 kcal/mol | 
